The results in this text go back to the supplement of paper PMC9112550, “Optimization of the antimicrobial peptide Bac7 by deep mutational scanning” (BMC Biology, 2022).

The test system of the series is Escherichia coli TOP10. Briefly: shrunken log2 fold change of peptide-encoding DNA abundance (4.5 h post-induction vs induction); higher = less antimicrobial activity (less host growth inhibition). Particulars: time post-induction: 4.5 h; library: site-saturation at positions 5, 18, 19, 20.
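Note: peptides expressed intracellularly from a pBAD plasmid library in pooled LB shake-flask culture, induced with 0.3% L-arabinose, DNA abundance read by NGS, three biological replicates, DESeq2 with apeglm shrinkage.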

In the case of RRIRKRPPRLPRPRPRPSCYPRP, the “shrunken log2 fold change” value is -0.0656.

For RRIRMRPPRLPRPRPRPTPVPRP, the “shrunken log2 fold change” value turned out to be 1.14.

Take RRIRVRPPRLPRPRPRPNMQPRP: the “shrunken log2 fold change” value is -0.33.

As for RRIRWRPPRLPRPRPRPDHKPRP, the “shrunken log2 fold change” value is -0.134.

With RRIRERPPRLPRPRPRPMVCPRP, the “shrunken log2 fold change” value is -0.0478.

Take RRIRERPPRLPRPRPRPEWQPRP: the “shrunken log2 fold change” value was -0.0536.

Consider RRIRMRPPRLPRPRPRPVHDPRP, for which the “shrunken log2 fold change” value was 0.0188.

RRIRVRPPRLPRPRPRPDWMPRP: the “shrunken log2 fold change” value was -0.0942.

Regarding RRIRIRPPRLPRPRPRPYDHPRP, the “shrunken log2 fold change” value is -0.285.

With RRIRARPPRLPRPRPRPRIPPRP, the “shrunken log2 fold change” value was 0.0568.

For RRIRARPPRLPRPRPRPCTDPRP, the “shrunken log2 fold change” value is -0.0325.

On to RRIRMRPPRLPRPRPRPMGRPRP, for which the “shrunken log2 fold change” value is -0.0209.

On to RRIRSRPPRLPRPRPRPDMFPRP, for which the “shrunken log2 fold change” value was -0.212.

Consider RRIRFRPPRLPRPRPRPHTTPRP, for which the “shrunken log2 fold change” value was -0.155.

With RRIRMRPPRLPRPRPRPMRGPRP, the “shrunken log2 fold change” value turned out to be 1.53.

For the sequence RRIRWRPPRLPRPRPRPAEDPRP, the “shrunken log2 fold change” value came out at 0.711.

As for RRIRYRPPRLPRPRPRPKGMPRP, the “shrunken log2 fold change” value is -0.111.

For RRIRERPPRLPRPRPRPVMIPRP, the “shrunken log2 fold change” value was -0.22.

For RRIRKRPPRLPRPRPRPRIKPRP, the “shrunken log2 fold change” value came to 0.185.

In the case of RRIRPRPPRLPRPRPRPTWKPRP, the “shrunken log2 fold change” value was -0.0108.

RRIRHRPPRLPRPRPRPKCMPRP: the “shrunken log2 fold change” value was -0.29.

Take RRIRDRPPRLPRPRPRPERCPRP: the “shrunken log2 fold change” value came to 0.426.

As for RRIRRRPPRLPRPRPRPIDRPRP, the “shrunken log2 fold change” value was -0.0459.

In the case of RRIRGRPPRLPRPRPRPFLYPRP, the “shrunken log2 fold change” value was -0.11.

As for RRIRHRPPRLPRPRPRPHTAPRP, the “shrunken log2 fold change” value is -0.337.

With RRIRRRPPRLPRPRPRPQPRPRP, the “shrunken log2 fold change” value came to 0.5.

As for RRIRQRPPRLPRPRPRPDMRPRP, the “shrunken log2 fold change” value came to 0.0308.

RRIRVRPPRLPRPRPRPWGHPRP: the “shrunken log2 fold change” value was 0.0373.

With RRIRYRPPRLPRPRPRPYGPPRP, the “shrunken log2 fold change” value is -0.143.

Turning to RRIRCRPPRLPRPRPRPLLNPRP, the “shrunken log2 fold change” value is -0.39.

For the sequence RRIRSRPPRLPRPRPRPDPVPRP, the “shrunken log2 fold change” value is 0.377.

As for RRIRDRPPRLPRPRPRPQFFPRP, the “shrunken log2 fold change” value is -0.00144.

For the sequence RRIRQRPPRLPRPRPRPCARPRP, the “shrunken log2 fold change” value is -0.0014.

Turning to RRIRVRPPRLPRPRPRPENLPRP, the “shrunken log2 fold change” value is -0.111.

Consider RRIRLRPPRLPRPRPRPPSHPRP, for which the “shrunken log2 fold change” value was 0.0809.

Take RRIRWRPPRLPRPRPRPSTMPRP: the “shrunken log2 fold change” value was -0.284.

In the case of RRIRGRPPRLPRPRPRPKKEPRP, the “shrunken log2 fold change” value is 0.042.

RRIRHRPPRLPRPRPRPCFSPRP: the “shrunken log2 fold change” value is 0.0626.

Regarding RRIRGRPPRLPRPRPRPVDDPRP, the “shrunken log2 fold change” value was determined as 0.882.

As for RRIRYRPPRLPRPRPRPWYDPRP, the “shrunken log2 fold change” value is -0.109.

As for RRIRVRPPRLPRPRPRPKGKPRP, the “shrunken log2 fold change” value turned out to be 0.102.

Consider RRIRERPPRLPRPRPRPNKNPRP, for which the “shrunken log2 fold change” value was found to be 0.0755.

With RRIRTRPPRLPRPRPRPQSPPRP, the “shrunken log2 fold change” value was -0.0309.

Turning to RRIRQRPPRLPRPRPRPNHTPRP, the “shrunken log2 fold change” value was -0.0975.

Turning to RRIRPRPPRLPRPRPRPGITPRP, the “shrunken log2 fold change” value is -0.138.

Consider RRIRHRPPRLPRPRPRPCCNPRP, for which the “shrunken log2 fold change” value was 0.0722.

Take RRIRGRPPRLPRPRPRPRHKPRP: the “shrunken log2 fold change” value was 0.149.

Turning to RRIRARPPRLPRPRPRPKFCPRP, the “shrunken log2 fold change” value came to 0.22.

As for RRIRVRPPRLPRPRPRPLGLPRP, the “shrunken log2 fold change” value is 0.122.

RRIRSRPPRLPRPRPRPYWWPRP: the “shrunken log2 fold change” value was -0.231.

Take RRIRWRPPRLPRPRPRPFKPPRP: the “shrunken log2 fold change” value was -0.231.

As for RRIRMRPPRLPRPRPRPGEMPRP, the “shrunken log2 fold change” value amounted to 0.0709.

Turning to RRIRMRPPRLPRPRPRPAAIPRP, the “shrunken log2 fold change” value was determined as 0.456.

With RRIRRRPPRLPRPRPRPTIQPRP, the “shrunken log2 fold change” value is 0.144.

For the sequence RRIRQRPPRLPRPRPRPMCHPRP, the “shrunken log2 fold change” value is -0.136.

For RRIRKRPPRLPRPRPRPCKLPRP, the “shrunken log2 fold change” value was -0.144.

For RRIRYRPPRLPRPRPRPRAAPRP, the “shrunken log2 fold change” value is -0.0447.

For RRIRQRPPRLPRPRPRPPFWPRP, the “shrunken log2 fold change” value turned out to be 0.504.

RRIRLRPPRLPRPRPRPTSDPRP: the “shrunken log2 fold change” value was 0.0874.

For RRIRTRPPRLPRPRPRPRKCPRP, the “shrunken log2 fold change” value was -0.1.

Consider RRIRERPPRLPRPRPRPTSWPRP, for which the “shrunken log2 fold change” value turned out to be 0.0831.

For the sequence RRIRIRPPRLPRPRPRPDCQPRP, the “shrunken log2 fold change” value came to 0.000528.

With RRIRPRPPRLPRPRPRPEAKPRP, the “shrunken log2 fold change” value turned out to be 1.03.

Turning to RRIRTRPPRLPRPRPRPNRWPRP, the “shrunken log2 fold change” value was -0.0997.

For the sequence RRIRNRPPRLPRPRPRPVIWPRP, the “shrunken log2 fold change” value was -0.112.

In the case of RRIRMRPPRLPRPRPRPGCKPRP, the “shrunken log2 fold change” value was found to be 0.172.

For RRIRGRPPRLPRPRPRPHVIPRP, the “shrunken log2 fold change” value is -0.191.

In the case of RRIRVRPPRLPRPRPRPDYYPRP, the “shrunken log2 fold change” value was -0.679.

Consider RRIRRRPPRLPRPRPRPNFGPRP, for which the “shrunken log2 fold change” value is 0.105.

With RRIRMRPPRLPRPRPRPGWYPRP, the “shrunken log2 fold change” value is -0.277.

RRIRPRPPRLPRPRPRPQHAPRP: the “shrunken log2 fold change” value worked out at 0.041.

On to RRIRDRPPRLPRPRPRPAFDPRP, for which the “shrunken log2 fold change” value was found to be 0.284.

As to RRIRQRPPRLPRPRPRPMLFPRP, the “shrunken log2 fold change” value is -0.0627.

As for RRIRHRPPRLPRPRPRPTDIPRP, the “shrunken log2 fold change” value is -0.668.

As to RRIRQRPPRLPRPRPRPDCCPRP, the “shrunken log2 fold change” value was -0.0188.

As for RRIRFRPPRLPRPRPRPQEEPRP, the “shrunken log2 fold change” value was -0.0228.

On to RRIRPRPPRLPRPRPRPFSRPRP, for which the “shrunken log2 fold change” value was -0.099.

As for RRIRIRPPRLPRPRPRPHWVPRP, the “shrunken log2 fold change” value is -0.0146.

In the case of RRIRDRPPRLPRPRPRPDYEPRP, the “shrunken log2 fold change” value is -0.0367.

Turning to RRIRVRPPRLPRPRPRPNNTPRP, the “shrunken log2 fold change” value was -0.418.

Take RRIRPRPPRLPRPRPRPEWWPRP: the “shrunken log2 fold change” value stood at 0.0468.

In the case of RRIRIRPPRLPRPRPRPSHQPRP, the “shrunken log2 fold change” value amounted to 0.0866.

Regarding RRIRNRPPRLPRPRPRPTWPPRP, the “shrunken log2 fold change” value turned out to be 0.77.

In the case of RRIRGRPPRLPRPRPRPQMPPRP, the “shrunken log2 fold change” value came to 0.225.

RRIRTRPPRLPRPRPRPVADPRP: the “shrunken log2 fold change” value worked out at 0.0403.

As for RRIRNRPPRLPRPRPRPKGYPRP, the “shrunken log2 fold change” value is -0.0233.

On to RRIRLRPPRLPRPRPRPSLTPRP, for which the “shrunken log2 fold change” value was -0.0866.

With RRIRKRPPRLPRPRPRPPSNPRP, the “shrunken log2 fold change” value came to 0.714.

Take RRIRPRPPRLPRPRPRPFYPPRP: the “shrunken log2 fold change” value is -0.854.

As to RRIRLRPPRLPRPRPRPYVLPRP, the “shrunken log2 fold change” value was -0.0278.

RRIRERPPRLPRPRPRPCRPPRP: the “shrunken log2 fold change” value is -0.00126.

Regarding RRIRDRPPRLPRPRPRPAILPRP, the “shrunken log2 fold change” value stood at 0.099.

Take RRIRERPPRLPRPRPRPYFAPRP: the “shrunken log2 fold change” value was -0.373.

Take RRIRRRPPRLPRPRPRPYKNPRP: the “shrunken log2 fold change” value was -0.47.

In the case of RRIRRRPPRLPRPRPRPKNIPRP, the “shrunken log2 fold change” value was -0.136.

With RRIRKRPPRLPRPRPRPMQFPRP, the “shrunken log2 fold change” value was determined as 0.105.

Consider RRIRNRPPRLPRPRPRPKTLPRP, for which the “shrunken log2 fold change” value is -0.134.

For the sequence RRIRPRPPRLPRPRPRPAAYPRP, the “shrunken log2 fold change” value was 0.0551.

Turning to RRIRPRPPRLPRPRPRPGHPPRP, the “shrunken log2 fold change” value was -0.12.

With RRIRYRPPRLPRPRPRPWHAPRP, the “shrunken log2 fold change” value is -0.25.

RRIRRRPPRLPRPRPRPVSQPRP: the “shrunken log2 fold change” value was found to be 0.264.

For the sequence RRIRLRPPRLPRPRPRPKTLPRP, the “shrunken log2 fold change” value is -0.0582.

With RRIRIRPPRLPRPRPRPISGPRP, the “shrunken log2 fold change” value is -0.0415.

Turning to RRIRDRPPRLPRPRPRPLNVPRP, the “shrunken log2 fold change” value was -0.029.

Regarding RRIRDRPPRLPRPRPRPHAQPRP, the “shrunken log2 fold change” value was -0.0623.

For RRIRYRPPRLPRPRPRPFRTPRP, the “shrunken log2 fold change” value is -0.0801.

As to RRIRGRPPRLPRPRPRPEFTPRP, the “shrunken log2 fold change” value was 0.74.

RRIRKRPPRLPRPRPRPCRSPRP: the “shrunken log2 fold change” value is -0.0126.

Consider RRIRPRPPRLPRPRPRPSCCPRP, for which the “shrunken log2 fold change” value was -0.0575.

In the case of RRIRPRPPRLPRPRPRPPNPPRP, the “shrunken log2 fold change” value was 0.453.

Take RRIRTRPPRLPRPRPRPCSPPRP: the “shrunken log2 fold change” value was -0.0356.

For the sequence RRIRGRPPRLPRPRPRPWEMPRP, the “shrunken log2 fold change” value is 0.0928.

On to RRIRTRPPRLPRPRPRPPSAPRP, for which the “shrunken log2 fold change” value came to 0.442.

RRIRHRPPRLPRPRPRPVDFPRP: the “shrunken log2 fold change” value was 0.0522.

On to RRIRVRPPRLPRPRPRPVFLPRP, for which the “shrunken log2 fold change” value is -0.339.

On to RRIRFRPPRLPRPRPRPFKCPRP, for which the “shrunken log2 fold change” value was -2.13.

Consider RRIRGRPPRLPRPRPRPGIRPRP, for which the “shrunken log2 fold change” value was 0.208.

For the sequence RRIRVRPPRLPRPRPRPKKWPRP, the “shrunken log2 fold change” value is -0.00649.

As to RRIRFRPPRLPRPRPRPVHVPRP, the “shrunken log2 fold change” value was -0.191.

For the sequence RRIRGRPPRLPRPRPRPAMEPRP, the “shrunken log2 fold change” value stood at 1.

For RRIRYRPPRLPRPRPRPTWVPRP, the “shrunken log2 fold change” value came to 0.18.

Take RRIRFRPPRLPRPRPRPLCMPRP: the “shrunken log2 fold change” value was -0.888.

RRIRHRPPRLPRPRPRPQMIPRP: the “shrunken log2 fold change” value was -0.139.

As to RRIRCRPPRLPRPRPRPQFSPRP, the “shrunken log2 fold change” value is -0.145.

Take RRIRQRPPRLPRPRPRPINCPRP: the “shrunken log2 fold change” value is -0.384.
